Drawing on patent US20090318342A1, “Compounds” (IMPERIAL INNOVATIONS LIMITED, priority 2005, published 2009), this text covers Ki for 2 substances.

Assay [1] addresses catalytic domain of stromelysin 1 (MMP-3(ΔC)) (Homo sapiens (Human)) (UniProt P08254). Nature of the assay: enzyme inhibition kinetics, Ki(app), 1 nM MMP-3(ΔC).
Assay [2] concerns the target soluble form of TACE in which the transmembrane and C-terminal cytoplasmic domains are deleted (TACE R651) (human) (UniProt P78536). The experiment in a line: TACE inhibition kinetics, Ki(app), pH 9.0, fit with equation 3 (cooperative).
Assay [3] has as its target catalytic domain of stromelysin 1 (MMP-3(ΔC)) (Homo sapiens (Human)) (UniProt P08254). The experiment in a line: enzyme inhibition kinetics, Ki(app), as in Example 1.
The target in assay [4] is full-length collagenase 1 (MMP-1) (Homo sapiens (Human)) (UniProt P03956). Described as above.
The target in assay [5] is gelatinase A (MMP-2) (Homo sapiens (Human)) (UniProt P08253). Described as above.
Assay [6] deals with full-length collagenase 1 (MMP-1) (Homo sapiens (Human)) (UniProt P03956). The experiment in a line: enzyme inhibition kinetics, Ki(app), 5 nM MMP-1.
Assay [7] concerns the target T1, recombinant human ADAMTS-4 lacking the C-terminal spacer domain (human) (UniProt O75173).
T1 sequence: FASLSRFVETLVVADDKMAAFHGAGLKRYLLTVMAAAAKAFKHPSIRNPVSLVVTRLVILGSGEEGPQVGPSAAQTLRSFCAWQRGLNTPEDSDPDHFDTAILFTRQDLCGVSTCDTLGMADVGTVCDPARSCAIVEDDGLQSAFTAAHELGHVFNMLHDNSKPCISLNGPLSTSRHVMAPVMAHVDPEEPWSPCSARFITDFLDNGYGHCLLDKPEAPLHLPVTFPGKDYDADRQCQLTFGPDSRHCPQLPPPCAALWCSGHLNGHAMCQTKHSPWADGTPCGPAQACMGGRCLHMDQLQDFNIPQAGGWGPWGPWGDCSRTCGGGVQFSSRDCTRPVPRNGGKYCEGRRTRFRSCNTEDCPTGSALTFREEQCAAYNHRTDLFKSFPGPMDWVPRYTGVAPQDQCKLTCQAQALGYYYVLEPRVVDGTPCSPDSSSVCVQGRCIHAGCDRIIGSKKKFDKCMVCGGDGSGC
The experiment in a line: inhibition of aggrecan cleavage by 0.5 nM ADAMTS-4, anti-GELE Western blot, densitometry. A general note: In western blotting, separated proteins are transferred to a membrane and probed.

Assay [8] addresses full-length collagenase 1 (MMP-1) (Homo sapiens (Human)) (UniProt P03956). Nature of the assay: MMP-1 inhibition under the conditions used for TACE activity measurements.
Target sequence in this assay (P03956 100-469 limits assumed): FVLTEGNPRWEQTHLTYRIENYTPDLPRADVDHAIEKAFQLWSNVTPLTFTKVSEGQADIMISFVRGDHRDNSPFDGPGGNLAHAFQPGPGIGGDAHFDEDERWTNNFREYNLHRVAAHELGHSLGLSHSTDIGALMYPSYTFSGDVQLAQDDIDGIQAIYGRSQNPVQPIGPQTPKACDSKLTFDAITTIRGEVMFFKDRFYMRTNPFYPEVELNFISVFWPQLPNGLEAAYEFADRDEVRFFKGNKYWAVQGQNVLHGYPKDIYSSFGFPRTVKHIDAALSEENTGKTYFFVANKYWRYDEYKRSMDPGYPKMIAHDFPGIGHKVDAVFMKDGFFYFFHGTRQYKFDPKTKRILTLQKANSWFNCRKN
Assay [9] deals with ADAMTS-5 (Homo sapiens (Human)) (UniProt Q9UNA0). The experiment in a line: GST-IGD-FLAG substrate assay, Ki(app).
In assay [10] the target is T2, ADAMTS-4 (as used in Example 4; form not stated) (Homo sapiens (Human)) (UniProt O75173).
T2 sequence: T1 sequence
The experiment in a line: GST-IGD-FLAG substrate assay, Ki(app).

Assay [11] has as its target gelatinase A (MMP-2) (Homo sapiens (Human)) (UniProt P08253). The experiment in a line: enzyme inhibition kinetics, Ki(app), 1 nM MMP-2.
The target in assay [12] is catalytic domain of membrane-type 1 MMP (MMP-14(CD)) (Homo sapiens (Human)) (UniProt P50281). Nature of the assay: enzyme inhibition kinetics, Ki(app), 5 nM MMP-14(CD).
In assay [13] the target is soluble form of TACE in which the transmembrane and C-terminal cytoplasmic domains are deleted (TACE R651) (human) (UniProt P78536). The experiment in a line: TACE inhibition kinetics at pH 7.5.

Sequence of (-1A)N-TIMP-3 (chain): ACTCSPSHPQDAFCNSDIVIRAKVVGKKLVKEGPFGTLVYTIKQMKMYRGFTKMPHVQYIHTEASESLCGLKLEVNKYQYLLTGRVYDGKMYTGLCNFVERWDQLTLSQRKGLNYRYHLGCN

On to (-1A)N-TIMP-3, for which the Ki is 3300 nM in assay [1]; 33.9 nM in assay [2]; more than 1000 nM in assay [3]; more than 500 nM in assay [4]; more than 1000 nM in [5]; 1300 nM in [6]. Also, the Ki in [7] came to 18 nM; in [8] it was 412 nM; in assay [9], 1.9 nM; in [10], 25 nM; in [11] it was 614 nM; in assay [12], 941 nM.

In the case of N-TIMP-3(T2G), the Ki in [13] was 46 nM; in assay [1], more than 10000 nM; in [2] it was 35.6 nM; in assay [3], more than 1000 nM; in assay [4], more than 500 nM; in assay [5], more than 1000 nM. For the same substance, the Ki worked out at 547 nM in assay [6]; 15 nM in [7]; 1.5 nM in assay [9]; 20 nM in [10]; 4200 nM in assay [11]; 2300 nM in assay [12].
